# Assay: In vitro degradation of IL-2 in simulated gastric fluid
# Type: in vitro ADME
# Conditions: free IL-2, pH 2.0, 100 min, 37° C., ELISA
# Method: In silico and in vitro degradation of bioactive factors within the gastric environment. The in silico cytokine degradation was predicted using the Expasy PeptideCutter software package (E. Gasteiger et al., in The Proteomics Protocols Handbook, J. M. Walker, Ed. (Humana Press, Totowa, N J, 2005), pp. 571-607). In vitro degradation of IL-2 was measured in simulated gastric fluid (Ricca Chemical Company, Arlington, Texas) at pH 2.0. For the second set of the experimental conditions, pepsin (3.2 μg/L, Sigma) was also included. The samples were incubated for […] at 37° C. on a rocker and then neutralized before ELISA assay (R and D systems) for the soluble factors. For the MP containing factors, following treatment in the simulated gastric fluid the MPs were removed and washed multiple times with PBS supplemented with BSA and then incubated for 22 hours in PBS with 0.5% BSA. The released IL-2 was then quantitated with an ELISA excluding that which was released during the initial […] incubation in the simulated gastric fluid.
substance,measurement,value
"IL-2: recombinant IL-2 (murine, R&D Systems); in silico prediction on SEQ ID NO: 9",degradation in simulated gastric fluid containing pepsin,complete degradation
